Measurements from patent US20220363718A1 (Bicycle, published 2022).
*1 amine or outer side, *2 acyl side, *3 side chain or, on linkers, in order; H or OH if unused. Bridges are numbered along the chain shown (N, C = ends). Where no end group is shown, it is not given here. [ ]: non-standard residue; d: D form. Phe(4-OMe) = 4-methoxy-phenylalanine (4-MeOPhe) = O-methyl-tyrosine, COc1ccc(C[C@H](N[*:1])C(=O)[*:2])cc1; TATA = O=C(CC[*:1])N1CN(C(=O)CC[*:2])CN(C(=O)CC[*:3])C1; Abu(4,4,4-F3) = N[C@@H](CC(F)(F)F)C(=O)O; Orn = NCCC[C@H](N)C(=O)O

B1: Example 100 (peptide)
peptide: Ac-CDWLEDCWRGFCTTS
modifications: linker 1-7-12 via TATA; not fully specified (C-terminus)
B2: Example 101 (peptide)
peptide: ACEWLEDCWRGFCA
modifications: linker 2-8-13 via TATA; not fully specified (C-terminus)
B3: Example 102 (peptide)
peptide: CQWLEDCWXGFC
modifications: not fully specified; CQWLEDCW[Cit]GFC as printed; 3 Cys on TATA
B4: Example 104 (peptide)
peptide: CQWLEDCWXGFC
modifications: not fully specified; N-term acetyl; CQWLEDCW[Cit]GFC as printed; 3 Cys on TATA
B5: Example 105 (peptide)
peptide: CQWLXDCWRGXC
modifications: not fully specified; N-term acetyl; CQWL[3-ClPhe]DCWRG[4-FPhe]C as printed; 3 Cys on TATA
B6: Example 144 (peptide)
peptide: CWWLXDCWRGXC
modifications: N-term acetyl; CWWL[3-ClPhe]DCWRG[4-FPhe]C as printed; 3 Cys on TATA
B7: Example 111 (peptide)
peptide: Ac-CQW[Abu(4,4,4-F3)]EDCWRGFC
modifications: linker 1-7-12 via TATA; not fully specified (C-terminus)
B8: Example 117 (peptide)
peptide: RENCRWLDDCWQGFCA
modifications: linker 4-10-15 via TATA
B9: Example 118 (peptide)
peptide: CQWLQDCFRGXC
modifications: N-term acetyl; CQWLQDCFRG[4-FPhe]C as printed; 3 Cys on TATA
B10: Example 125 (peptide)
peptide: ACNWLEDCWHGFCHEE
modifications: linker 2-8-13 via TATA; not fully specified (C-terminus)
B11: Example 19 (peptide)
peptide: CHWLEDCWRGXC
modifications: N-term acetyl; CHWLEDCWRG[4-FPhe]C as printed; 3 Cys on TATA
B12: Example 23 (peptide)
peptide: CQWLENCWRGXC
modifications: not fully specified; N-term acetyl; CQWLENCWRG[4-FPhe]C as printed; 3 Cys on TATA
B13: Example 39 (peptide)
peptide: CQWLFDCWRGXC
modifications: N-term acetyl; CQWLFDCWRG[4-FPhe]C as printed; C-terminal -COOH; 3 Cys on TATA
B14: Example 43 (peptide)
peptide: CQWLFDCWRGXC
modifications: not fully specified; N-term acetyl; CQWLFDCWRG[4-FPhe]C as printed; 3 Cys on TATA
B15: Example 57 (peptide)
peptide: CQWIEDCWRGXC
modifications: N-term acetyl; CQWIEDCWRG[4-FPhe]C as printed; 3 Cys on TATA
B16: Example 126 (peptide)
peptide: CAWLEDCWRGXC
modifications: not fully specified; N-term acetyl; C[dA]WLEDCWRG[4-FPhe]C as printed; 3 Cys on TATA
B17: Example 128 (peptide)
peptide: CQWLEDCWRGFCDTSTHS
modifications: linker 1-7-12 via TATA; not fully specified (C-terminus)
B18: Example 130 (peptide)
peptide: CQWLEDCWRGXC
modifications: N-term acetyl; CQWLEDCWRG[3-CNPhe]C as printed; 3 Cys on TATA
B19: Example 131 (peptide)
peptide: CQWLEDCWXGFC
modifications: N-term acetyl; CQWLEDCW[Can]GFC as printed; 3 Cys on TATA
B20: Example 135 (peptide)
peptide: CQWLEDCWRGXC
modifications: N-term acetyl; CQWLEDCWRG[2ThienylA]C as printed; 3 Cys on TATA
B21: Example 136 (peptide)
peptide: ACEWLEDCWKGFCHSE
modifications: linker 2-8-13 via TATA
B22: Example 138 (peptide)
peptide: ACFWLEDCWRGYCETA
modifications: linker 2-8-13 via TATA
B23: Example 141 (peptide)
peptide: ACDWLDDCWKGFCA
modifications: linker 2-8-13 via TATA
B24: Example 142 (peptide)
peptide: Ac-CQWLEDCWRG[Phe(4-OMe)]C
modifications: linker 1-7-12 via TATA
B25: Example 143 (peptide)
peptide: CQWLEDCWRGXC
modifications: N-term acetyl; CQWLEDCWRG[3-BrPhe]C as printed; 3 Cys on TATA
B26: Example 145 (peptide)
peptide: CQXLEDCWXGXC
modifications: N-term acetyl; CQ[ButG]LEDCW[ButG]G[4-FPhe]C as printed; 3 Cys on TATA
B27: Example 147 (peptide)
peptide: CQWXEDCWRGFC
modifications: N-term acetyl; CQW[M(O)]EDCWRGFC as printed; 3 Cys on TATA
B28: Example 149 (peptide)
peptide: Ac-CQWLEDCWAGFC
modifications: linker 1-7-12 via TATA
B29: Example 155 (peptide)
peptide: CQWLEDCWXGFC
modifications: not fully specified; N-term acetyl; CQWLEDCW[Dap]GFC as printed; 3 Cys on TATA
B30: Example 156 (peptide)
peptide: CQWLEDCWXGFC
modifications: not fully specified; CQWLEDCW[Dap]GFC as printed; 3 Cys on TATA
B31: Example 159 (peptide)
peptide: CHWLENCWXGFC
modifications: not fully specified; N-term acetyl; CHWLENCW[Dap]GFC as printed; 3 Cys on TATA
B32: Example 161 (peptide)
peptide: ACESLDPWSCPVWWRCA
modifications: linker 2-10-16 via TATA; not fully specified (C-terminus)
B33: Example 163 (peptide)
peptide: ACTELDPWTCETWWLCA
modifications: linker 2-10-16 via TATA; not fully specified (C-terminus)
B34: Example 165 (peptide)
peptide: AHPCADLDPWTCPNWWLCA
modifications: linker 4-12-18 via TATA; not fully specified (C-terminus)
B35: Example 167 (peptide)
peptide: ACKDLDPWTCSSWWECAPN
modifications: linker 2-10-16 via TATA; not fully specified (C-terminus)
B36: Example 168 (peptide)
peptide: ACRDLDPWTCPTWWTCYDE
modifications: linker 2-10-16 via TATA; not fully specified (C-terminus)
B37: Example 169 (peptide)
peptide: ACTDLDPWTCNSWWLCAGD
modifications: linker 2-10-16 via TATA; not fully specified (C-terminus)
B38: Example 170 (peptide)
peptide: ACRDLDPWTCEEWWLCAHP
modifications: linker 2-10-16 via TATA
B39: Example 175 (peptide)
peptide: ACRDLDPWTCSSWWLCSESVHTA
modifications: linker 2-10-16 via TATA
B40: Example 176 (peptide)
peptide: ACRDLDPWTCSSWWLCSSDTTDA
modifications: linker 2-10-16 via TATA
B41: Example 177 (peptide)
peptide: ACRDLDPWTCSSWWLCKPDHVDA
modifications: linker 2-10-16 via TATA
B42: Example 179 (peptide)
peptide: CKELDPWTCETWWLC
modifications: linker 1-9-15 via TATA
B43: Example 181 (peptide)
peptide: CQELDPWTCETWWLC
modifications: linker 1-9-15 via TATA
B44: Example 180 (peptide)
peptide: C[Orn]ELDPWTCETWWLC
modifications: linker 1-9-15 via TATA
B45: Example 182 (peptide)
peptide: CTELDXWTCETWWLC
modifications: CTELD[diF-P]WTCETWWLC as printed; 3 Cys on TATA
B46: Example 183 (peptide)
peptide: ACVDLDPWSCEDWWLCA
modifications: linker 2-10-16 via TATA
B47: Example 187 (peptide)
peptide: RAPCPDLDPWTCSDWWLCA
modifications: linker 4-12-18 via TATA
B48: Example 188 (peptide)
peptide: SHVCRDLDPWTCDSWWLCA
modifications: linker 4-12-18 via TATA
B49: Example 189 (peptide)
peptide: RDLCTDLDPWTCPDWWLCA
modifications: linker 4-12-18 via TATA
B50: Example 190 (peptide)
peptide: RVNTHQCRDLDPWTCSSWWLCA
modifications: linker 7-15-21 via TATA
B51: Example 193 (peptide)
peptide: ACRDLDPWTCSSWWLCADGLYDA
modifications: linker 2-10-16 via TATA
B52: Example 194 (peptide)
peptide: CTELDXWTCETWWLC
modifications: CTELD[5-Ph-P]WTCETWWLC as printed; 3 Cys on TATA
B53: Example 195 (peptide)
peptide: CTELDXWTCETWWLC
modifications: CTELD[Chx-P]WTCETWWLC as printed; 3 Cys on TATA
B54: Example 196 (peptide)
peptide: ACDWQWSYDCWLPCA
modifications: linker 2-10-14 via TATA
B55: Example 197 (peptide)
peptide: ACDWVWEYDCWLPCA
modifications: linker 2-10-14 via TATA
B56: Example 198 (peptide)
peptide: ACDWDWEYDCWLHCA
modifications: linker 2-10-14 via TATA
B57: Example 199 (peptide)
peptide: ACDWHWEYDCWLSCA
modifications: linker 2-10-14 via TATA
B58: Example 20 (peptide)
peptide: CQWLQDCWXGXC
modifications: N-term acetyl; CQWLQDCW[ADMA]G[4-FPhe]C as printed; 3 Cys on TATA
B59: Example 28 (peptide)
peptide: CWWLQDCWXGXC
modifications: not fully specified; N-term acetyl; CWWLQDCW[ADMA]G[4-FPhe]C as printed; 3 Cys on TATA
B60: Example 70 (peptide)
peptide: CQWLEDCWXGXC
modifications: N-term acetyl; CQWLEDCW[4-PipA]G[4-FPhe]C as printed; 3 Cys on TATA
B61: Example 200 (peptide)
peptide: DHDCTWNWEYDCWLDCA
modifications: linker 4-12-16 via TATA
B62: Example 21 (peptide)
peptide: CQXLEDCXRGXC
modifications: not fully specified; N-term acetyl; CQ[5FTrp]LEDC[5FTrp]RG[4-FPhe]C as printed; 3 Cys on TATA

Target: T1, Biotinylated human TSLP (human, biotinylated)
T1 construct: also called hTSLP; thymic stromal lymphopoietin
T1 sequence (chain, as listed by the source limits assumed): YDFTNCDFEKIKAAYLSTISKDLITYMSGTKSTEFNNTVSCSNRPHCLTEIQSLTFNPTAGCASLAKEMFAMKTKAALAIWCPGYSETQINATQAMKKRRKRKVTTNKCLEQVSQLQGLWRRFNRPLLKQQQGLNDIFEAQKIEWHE
Test: SPR, biotinylated hTSLP on streptavidin chip

| Binder | Kd |
| --- | --- |
| B1 | 160 nM |
| B2 | 160 nM |
| B3 | 170 nM |
| B4 | 180 nM |
| B5 | 180 nM |
| B6 | 860 nM |
| B7 | 200 nM |
| B8 | 250 nM |
| B9 | 250 nM |
| B10 | 300 nM |
| B11 | 6.7 nM |
| B12 | 9.9 nM |
| B13 | 21 nM |
| B14 | 30 nM |
| B15 | 51 nM |
| B16 | 310 nM |
| B17 | 380 nM |
| B18 | 400 nM |
| B19 | 400 nM |
| B20 | 490 nM |
| B21 | 520 nM |

| Binder | Kd |
| --- | --- |
| B22 | 520 nM |
| B23 | 600 nM |
| B24 | 710 nM |
| B25 | 750 nM |
| B26 | 900 nM |
| B27 | 940 nM |
| B28 | 1100 nM |
| B29 | 3200 nM |
| B30 | 3300 nM |
| B31 | 5600 nM |
| B32 | 890 nM |
| B33 | 230 nM |
| B34 | 30 nM |
| B35 | 170 nM |
| B36 | 290 nM |
| B37 | 290 nM |
| B38 | 170 nM |
| B39 | 240 nM |
| B40 | 300 nM |
| B41 | 580 nM |
| B42 | 360 nM |

| Binder | Kd |
| --- | --- |
| B43 | 310 nM |
| B44 | 300 nM |
| B45 | 1300 nM |
| B46 | 330 nM |
| B47 | 86 nM |
| B48 | 72 nM |
| B49 | 310 nM |
| B50 | 81 nM |
| B51 | 50 nM |
| B52 | 290 nM |
| B53 | 15000 nM |
| B54 | 6100 nM |
| B55 | 460 nM |
| B56 | 290 nM |
| B57 | 81 nM |
| B58 | 8.6 nM |
| B59 | 12 nM |
| B60 | 80 nM |
| B61 | 68 nM |
| B62 | 9.2 nM |
